Laboratory results from patent US20100266532A1, “METHODS FOR INHIBITING SCARRING” (Renovo Limited, priority 2007, published 2010).

Legend:
human wounds = assay: Clinical trial, two incidences of treatment within approximately 1 hour, lay panel VAS scar scoring; assay type: in vivo
Method: FIG. 2 illustrates data from a clinical trial conducted by the inventors. In this study TGFβ3 and Placebo were each administered in two separate incidences of treatment (by means of two intradermal injections). However, unlike the methods of the present invention, the first incidence of treatment took place immediately prior to wounding but the second incidence of treatment occurred immediately after wound closure, i.e., both doses being administered within approximately 1 hour of one another (the first ten to thirty minutes prior to wounding, and the second ten to thirty minutes post-wounding). […] To test the treatment effect, ToScar of the TGFβ3 scar was subtracted from the anatomically matched Placebo ToScar on the other arm on each subject. ToScar was calculated as the sum of VAS scores (mm) from week 6 and months 3, 4, 5, 6 and 7. The scars were scored by an independent lay panel at 6 time points after dosing (week 6, months 3-7) using a 100 mm VAS line.
FIG. 8 illustrates data from a clinical trial conducted by the inventors in which either TGF-β3 or placebo were administered in two incidents of treatment (each comprising administration of the test substance by intradermal injection), the first incidence occurring prior to wounding and the second immediately after wound closure, i.e., both doses of TGF-β3 being the same as one another, and administered within approximately 1 hour (10-30 mins prior to wounding and 10-30 mins post wounding).

[1] = system: scars produced on healing of wounds; assay: Profilometry analysis of silicone moulds from scars, dosed twice approximately 24 hours apart; assay type: in vivo, human
Description: Note that this is not a method of treatment in accordance with the invention, but (along with FIG. 6) serves to provide comparative data illustrating the surprising effectiveness of a method of treatment in accordance with the invention.

[2] = dosed twice with 50 ng/100 μl per cm approximately 24 hours apart
[3] = dosed twice with 200 ng/100 μl per cm approximately 24 hours apart

B1: TGF-β3: well-known anti-scarring growth factor, Sequence ID No. 1; labelled "Juvista" in FIGS. 8 and 9 (protein, listed as Homo sapiens)
chain: ALDTNYCFRNLEENCCVRPLYIDFRQDLGWKWVHEPKGYYANFCSGPCPYLRSADTTHSTVLGLYNTLNPEASASPCCVPQDLEPLTILYYVGRTPKVEQLSNMVVKSCKCS
inhibition of scarring (mean VAS scores over time) (human wounds; two applications of 5, 50, 200 and 500 ng/100 μl per cm within approximately 1 hour, week 6 to month 7): scarring is inhibited | inhibition of scarring (human wounds; two applications of 5, 50, 200 and 500 ng/100 μl per cm, both within approximately 1 hour): effectively inhibited | scar improvement (placebo ToScar minus TGFβ3 ToScar, sum of VAS scores), average (human wounds; two applications within approximately 1 hour, 200 ng/100 μl per cm, maximum improvement): > 40 mm | drug efficacy at top of dose range (human wounds; two applications within approximately 1 hour, 500 ng/100 μl per cm, versus 200 ng): reduction in drug efficacy | reduction in scar surface area compared to placebo [1, 2]: 30.21% | scar surface area [1, 2]: 12.823 mm^2 | reduction in scar raised volume compared to placebo [1, 3]: 73.33% | reduction in scar surface area compared to placebo [1, 3]: 75.19% | scar raised volume [1, 3]: 0.0008 mm^3 | scar surface area [1, 3]: 3.532 mm^2 | inhibition of scarring, 3-dimensional simulations ([1]; dosed twice with 500 ng/100 μl per cm approximately 24 hours apart): Maximal inhibition of scarring
